Target: SARS-CoV-2 S protein RBD (residues 319-541 of the S protein), soluble, with C-terminal Avitag and His tag (SARS-CoV-2, UniProt P0DTC2 319-541)

B1: O4G1 (antibody, V domains shown)
VH: EVQLLESGGGLVQPGGSLRLSCAASGFRFDYEDMGWVRQAPGKGLEWVSSIDSHGASTYYADSVKGRFTISRDNSKNTLYLQMNSLRAEDTAVYYCAKYSHSVSYGPFDYWGQGTLVTVSS
VL: DIQMTQSPSSLSASVGDRVTITCRASQYIYDDLNWYQQKPGKAPKLLIYSASSLQSGVPSRFSGSGSGTDFTLTISSLQPEDFATYYCQQTNTYPQTFGQGTKVEIK
  Kd: 19 nM

B2: O4C12 (antibody, V domains shown)
VH: EVQLLESGGGLVQPGGSLRLSCAASGFRISDEDMGWVRQAPGKGLEWVSYIDNAGASTYYADSVKGRFTISRDNSKNTLYLQMNSLRAEDTAVYYCAKQINQGEGFDYWGQGTLVTVSS
VL: DIQMTQSPSSLSASVGDRVTITCRASQSISSYLNWYQQKPGKAPKLLIYYASNLQSGVPSRFSGSGSGTDFTLTISSLQPEDFATYYCQQGLGMPITFGQGTKVEIK
  Kd: 23 nM
